# In US11499200B2, “Methods for determining resistance or susceptibility to HIV entry inhibitors” (Monogram Biosciences, Inc., priority 2005, dated 2022):
# How the values were obtained:
# [1] = tested on: HIV-1 particles pseudotyped with patient-derived or chimeric envelope proteins (gp160); assay: Cell based HIV-1 entry assay (pseudotyped virus, luciferase): entry inhibitor susceptibility; conditions: FIG. 6; compared with sensitivity to B4
# Protocol: In this embodiment, drug susceptibility, co-receptor tropism and virus neutralization testing are performed by co-transfecting a host cell with pHIVenv and pHIVlucΔU3. The host cell produces HIV particles that are pseudo-typed with HIV envelope sequences derived from the test virus or subject sample. Virus particles are collected (˜48 h) after transfection and are used to infect target cells that express HIV receptors (e.g. CD4) and co-receptors (e.g. CXCR4, CCR5). After infection (˜72 h) the target cells are lysed and luciferase activity is measured. HIV must complete one round of replication to successfully infect the target host cell and produce luciferase activity. […]
# Drug susceptibility testing was performed using pHIVenv and pHIVluc or pHIVlucΔU3. […] After infection (˜72 h) the target cells are lysed and luciferase activity is measured. […] The amount of luciferase activity detected in the infected cells is used as a direct measure of “infectivity” (FIGS. 1 and 2). […] Drug susceptibility is assessed by comparing the infectivity in the absence of drug to infectivity in the presence of drug. Relative drug susceptibility can be quantified by comparing the susceptibility of the “test” virus to the susceptibility of a well-characterized reference virus (wildtype) derived from a molecular clone of HIV-1, for example NL4-3 or HXB2. […]
# [2] = target: clone 3 of FIG. 6 envelope protein (clone 11 of FIGS. 7-9), with L261S (HIV-1); assay: cell-based or functional assay
# [3] = target: clone 3 of FIG. 6 envelope protein with the wild-type residue at position 261 (HIV-1); assay: cell-based or functional assay
Substance,"sensitivity to entry inhibitor, sixteen clones of one patient [1]","IC50 of PRO542, log-sigmoid inhibition curves of the entry assay [2]","IC50 of PRO542, log-sigmoid inhibition curves of the entry assay [3]"
"TNX-355: HIV entry inhibitor under investigation (Tanox Inc.), listed as CD4 binding site entry inhibitor",varied inversely to sensitivity to B4,–,–
PRO542 (from UniProt P01730 26-204) (receptor),–,11 µg/ml,0.9 µg/ml
